# Data: publication PMC5705077 (Biochemistry, 2017)
# T1: MBP-Brh2^106–1075 (Ustilago maydis, UniProt Q8NJ74 106-1075)
# T1 sequence (looked up): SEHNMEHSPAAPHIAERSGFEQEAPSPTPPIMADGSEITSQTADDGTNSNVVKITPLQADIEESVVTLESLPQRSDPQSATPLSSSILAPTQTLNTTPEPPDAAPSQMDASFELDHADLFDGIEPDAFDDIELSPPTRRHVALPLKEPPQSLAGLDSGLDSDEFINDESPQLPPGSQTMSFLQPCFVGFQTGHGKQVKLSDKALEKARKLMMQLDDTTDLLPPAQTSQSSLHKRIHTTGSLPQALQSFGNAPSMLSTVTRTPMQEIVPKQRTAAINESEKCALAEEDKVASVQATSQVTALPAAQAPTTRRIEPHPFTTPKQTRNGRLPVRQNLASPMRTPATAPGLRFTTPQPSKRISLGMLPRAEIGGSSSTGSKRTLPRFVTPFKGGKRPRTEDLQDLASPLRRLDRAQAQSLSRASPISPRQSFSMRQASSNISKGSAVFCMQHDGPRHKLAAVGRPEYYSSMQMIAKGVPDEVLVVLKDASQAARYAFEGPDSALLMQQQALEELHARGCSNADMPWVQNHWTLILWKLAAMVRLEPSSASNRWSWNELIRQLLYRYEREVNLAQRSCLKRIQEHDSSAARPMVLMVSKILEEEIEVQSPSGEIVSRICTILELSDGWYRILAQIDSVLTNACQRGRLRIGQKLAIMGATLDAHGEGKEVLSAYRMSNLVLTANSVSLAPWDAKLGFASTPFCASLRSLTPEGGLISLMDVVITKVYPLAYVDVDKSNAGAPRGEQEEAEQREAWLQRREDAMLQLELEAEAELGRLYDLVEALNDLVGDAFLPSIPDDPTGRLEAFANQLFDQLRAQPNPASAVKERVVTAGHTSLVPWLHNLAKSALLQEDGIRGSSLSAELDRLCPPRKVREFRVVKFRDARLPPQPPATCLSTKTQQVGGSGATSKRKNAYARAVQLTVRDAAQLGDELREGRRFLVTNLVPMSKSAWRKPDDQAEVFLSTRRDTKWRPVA
# Legend:
# MBP-Brh2^106–1075 [1] = biological target: T1, MBP-Brh2^106–1075; test: pull-down
# MBP-Brh2^106–1075 [2] = biological target: T1, MBP-Brh2^106–1075; test: pull-down; remark: listed apart in the source
binder,measurement,setting,value
"Rad51 (natural protein, UniProt Q99133 1-339, looked up) MSQNAQDPAQIGEDDMGEAFGPLPVSKLEEFGISSSDCKKLAESGYNTVESIAFTPKKQLLLVKGVSEAKADKILAEAARLVPMGFTTATEFHARRNELISITTGSKNLDAILGGGMETGSITELYGEFRTGKSQLCHTLAVTCQLPVDMGGGEGKCLYIDTENTFRPTRLLAVAERFGLNGEEVLDNVAYARAYNADHQLQLLMQASAMMAESRFSLLIVDSLTSLYRTDFSGRGELSARQMHLAKFLRGLMRLADEFGVAVVITNQVVAQVDGATAFTADAKKPIGGNIVAHASTTRLSLRKGRGNQRICRIADSPCLPEADAVFAIGPEGIIDPVD",fold Rad51 associated relative to the Brh2/Dss1 heterodimer,MBP-Brh2^106–1075 [1],~10 fold
same,stoichiometry N,MBP-Brh2^106–1075 [2],~2.2 Rad51 per Brh2 (mol:mol)
